Assay results taken from patent US20160024196A1 (Amgen, published 2016).

Assays:
murine SFRP5 [1] = target: T1, murine SFRP5 (mouse, UniProt Q9WU66 22-314, limits assumed); assay: kinetics; method not stated (Table 12, repeats Table 8)
T1 construct: also called mouse SFRP5; muSFRP5
T1 sequence: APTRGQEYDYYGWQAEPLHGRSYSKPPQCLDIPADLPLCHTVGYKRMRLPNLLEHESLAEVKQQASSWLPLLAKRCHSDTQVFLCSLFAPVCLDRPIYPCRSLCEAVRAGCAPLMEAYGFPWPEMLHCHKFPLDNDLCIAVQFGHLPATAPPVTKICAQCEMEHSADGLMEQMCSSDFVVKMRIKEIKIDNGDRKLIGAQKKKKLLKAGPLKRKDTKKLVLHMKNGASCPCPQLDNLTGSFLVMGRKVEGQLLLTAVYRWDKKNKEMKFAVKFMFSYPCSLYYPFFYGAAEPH

murine SFRP5 [2] = target: T1, murine SFRP5; assay: kinetics; method and SFRP5 construct not stated (Table 8)

B1: anti-SFRP5 monoclonal antibody subclone 24C18.3 (antibody, IgG2b, V domains shown)
VH: QVQLTQSGAELVRPGASVKLSCKASGYTFTDYYINWVKQRPGQGLEWIARIYPGSGNTYYNEKFKGKATLTAEKSSSTAYMQLSSLTSEDSAVYFCAAYSASAMDYWGQGTSVTVSS
VL: NVVLTQSPASLAVSLGQRATISCRASESVDSYGKSFMYWYQQKPGQPPKLLIYLANNLESGVPARFSGSGSRTDFTLTIDPVEADDAASYYCQQNNEDPWTFGGGTKLEIK
notes: also called mu24C18.3
Kd (murine SFRP5 [1]): 0.658 nM | koff (murine SFRP5 [1]): 7.36e-05 s⁻¹ | kon (murine SFRP5 [1]): 112000 M⁻¹ s⁻¹ | Kd (murine SFRP5 [2]): 0.658 nM | koff (murine SFRP5 [2]): 7.36e-05 s⁻¹ | kon (murine SFRP5 [2]): 112000 M⁻¹ s⁻¹
